Data taken from patent US9200040B2, “Specific binding agents of human angiopoietin-2” (Amgen Inc., priority 2001, dated 2015).
Read-outs that look alike come from different tables or passages of the source. Primed or numbered codes have the meaning given here. Where no end group is shown, it is not given here. [ ]: non-standard residue; d: D form. Fc(6) = Fc vehicle: non-antigen-binding antibody fragment (from proteolytic digestion of an antibody) fused to the peptide; Fc(8) = Fc vehicle: non-antigen-binding antibody fragment fused to the peptide (peptibody); Fc(5) = non-antigen-binding fragment of an antibody (vehicle) fused to the peptide; Fc(9) = antibody Fc fragment, the non-antigen-binding fragment

Legend:
Colo-205 tumor = settings: for tumor growth vs. vehicle control: from study day 14: 2×Con4-C 350 μg/mouse s.c. twice a week, p<0.0001
Description: Female nude mice were injected subcutaneously with 2×10^6 Colo-205 cells plus Matrigel (2:1) on study day 0. At day 3, the Ang-2 peptibodies L1-7-N, L1-21-N, Con4-C, and 2×Con4-C were administered subcutaneously at the dose of […], twice a week.
Female nude mice were injected subcutaneously with 2×10^6 Colo-205 cells plus Matrigel (2:1) on study day 0.
Female nude mice were injected subcutaneously with 2×10^6 Colo-205 cells plus Matrigel (2:1) on study day 0. At day 3, Ang-2 peptibody 2×Con4-C or control peptibody were administered subcutaneously at the dose of 350 μg/day. Tumors from groups treated with control peptibody (as described in Table 5) were harvested either at Day 14 (size-matched control) or Day 18 (time-matched control). Tumors from 2×Con4(C) treated group were then harvested at Day 18. Tumor volumes were recorded at regular intervals, as shown.
Female nude mice were injected subcutaneously with 2×10^6 Colo-205 cells plus Matrigel (2:1) on study day 0. Treatment with 350 μg/mouse, s.c. twice a week, of the Ang-2 peptibody 2×Con4-C, or equivalent control peptibody started either at study day 3, 10 or 15. […] The results are set forth in FIG. 8 (body weights not shown).
Female nude mice were injected subcutaneously with 2×10^6 Colo-205 cells plus Matrigel (2:1) on study day 0. At study day 14, treatments were started with a) 350 μg/mouse, s.c. twice a week, of the Ang-2 peptibody 2×Con4-C, b) 20 mg/kg qwx3 i.p. of taxotere, or c) a combination of both.
Female nude mice were injected subcutaneously with 2×10^6 Colo-205 cells plus Matrigel (2:1) on study day 0. At study day 14 started treatments with a) 350 μg/mouse, s.c. twice a week, of the Ang-2 peptibody 2×Con4-C, b) 50 mg/kg qdx5 i.p. of 5-FU, or c) a combination of both.

huAng2 = molecular target: T1, huAng2 (Homo sapiens, UniProt O15123); assay: BIAcore binding to huAng2 (Example 9); settings: Table 8
T1 construct: purchased R&D Systems BNO12103A
T1 sequence (O15123 68-496 limits assumed): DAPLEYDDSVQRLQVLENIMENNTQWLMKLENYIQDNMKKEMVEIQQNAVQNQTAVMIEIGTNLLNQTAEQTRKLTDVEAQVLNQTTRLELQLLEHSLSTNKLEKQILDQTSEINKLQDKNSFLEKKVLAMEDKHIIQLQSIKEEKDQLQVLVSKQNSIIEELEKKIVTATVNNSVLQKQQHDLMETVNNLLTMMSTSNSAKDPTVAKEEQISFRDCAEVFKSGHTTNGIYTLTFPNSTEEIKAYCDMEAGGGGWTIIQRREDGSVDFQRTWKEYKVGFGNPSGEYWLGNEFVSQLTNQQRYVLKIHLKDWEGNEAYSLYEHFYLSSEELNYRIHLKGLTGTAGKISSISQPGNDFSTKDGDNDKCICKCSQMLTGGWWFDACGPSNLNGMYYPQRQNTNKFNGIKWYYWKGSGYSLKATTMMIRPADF
Description: Six samples of anti-Ang2 peptibodies were tested for their binding activity to huAng2 (R&D Systems, BNO12103A) on BIAcore. Protein G was immobilized to a CM5 chip according to the standard amine-coupling protocol (BIAcore Inc.), and the peptibodies were then injected over a protein G surface for capturing (RL˜100 Ru). To test binding between hAng2 and the captured peptibody, 0.3 nM to 40 nM of huAng2 was injected over the captured peptibody surfaces, and binding sensorgrams were analyzed using BIAevaluation 3.0 (BIAcore Inc.).

mAng-2 = molecular target: T2, mAng-2 (Mus musculus, UniProt O35608); assay: Affinity BIAcore (Example 2); assay type: binding, murine; settings: Table 6
T2 construct: made in house
T2 sequence (O35608 19-496): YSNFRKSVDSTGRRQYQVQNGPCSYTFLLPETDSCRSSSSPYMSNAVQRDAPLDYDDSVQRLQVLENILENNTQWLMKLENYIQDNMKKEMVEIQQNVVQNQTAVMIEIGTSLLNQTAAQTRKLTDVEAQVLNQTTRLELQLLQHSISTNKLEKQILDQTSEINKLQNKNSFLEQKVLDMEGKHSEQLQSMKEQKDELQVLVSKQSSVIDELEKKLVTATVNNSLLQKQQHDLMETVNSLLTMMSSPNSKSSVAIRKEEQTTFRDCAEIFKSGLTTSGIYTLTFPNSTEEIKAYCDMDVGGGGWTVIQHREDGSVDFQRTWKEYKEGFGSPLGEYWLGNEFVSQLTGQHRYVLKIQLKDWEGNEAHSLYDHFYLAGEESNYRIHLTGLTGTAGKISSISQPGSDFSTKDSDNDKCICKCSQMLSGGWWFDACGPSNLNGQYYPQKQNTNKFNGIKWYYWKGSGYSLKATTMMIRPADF
Description: (§1) Binding assays were carried out by first capturing about 100 Ru of each candidate anti-Ang-2 peptibody to the immobilized Protein G, after which various concentrations (0-100 nM) of huAng-2 or mAng-2 were injected over the bound antibody surface at a flow rate of 50 μl/min for 3 minutes. Peptibody binding kinetic parameters including ka (association rate constant), kd (dissociation rate constant) and KD (dissociation equilibrium constant) were determined using the BIA evaluation 3.1 computer program (Biacore, Inc.). Lower dissociation equilibrium constants indicated greater affinity of the peptibody for Ang-2.

hAng-2 = molecular target: T3, hAng-2 (Homo sapiens, UniProt O15123); assay: Affinity BIAcore (Example 2); assay type: binding; settings: Table 6
T3 construct: conditioned media of human 293T cells transfected with full length human Ang-2 DNA; made in house; host or cells: conditioned media
T3 sequence (O15123 19-496): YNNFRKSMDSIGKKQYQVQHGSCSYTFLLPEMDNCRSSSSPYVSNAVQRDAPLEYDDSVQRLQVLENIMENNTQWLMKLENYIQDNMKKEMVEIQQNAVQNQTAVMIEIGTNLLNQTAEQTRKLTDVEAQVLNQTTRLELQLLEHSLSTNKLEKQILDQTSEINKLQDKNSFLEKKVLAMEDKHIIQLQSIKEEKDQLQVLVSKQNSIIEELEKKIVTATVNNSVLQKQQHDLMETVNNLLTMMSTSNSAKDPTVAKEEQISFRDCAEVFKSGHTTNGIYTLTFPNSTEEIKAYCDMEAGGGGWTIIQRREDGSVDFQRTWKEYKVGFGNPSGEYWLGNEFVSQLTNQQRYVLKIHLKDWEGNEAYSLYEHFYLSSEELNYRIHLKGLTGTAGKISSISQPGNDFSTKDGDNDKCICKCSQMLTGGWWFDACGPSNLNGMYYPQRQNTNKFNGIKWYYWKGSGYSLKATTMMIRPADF
Description: as §1

hAng-1 = molecular target: T4, hAng-1 (Homo sapiens, UniProt Q15389); assay: Neutralization ELISA (Example 2); assay type: binding; settings: Table 5; about 1 nM Tie-2-Fc
T4 sequence (Q15389 16-498): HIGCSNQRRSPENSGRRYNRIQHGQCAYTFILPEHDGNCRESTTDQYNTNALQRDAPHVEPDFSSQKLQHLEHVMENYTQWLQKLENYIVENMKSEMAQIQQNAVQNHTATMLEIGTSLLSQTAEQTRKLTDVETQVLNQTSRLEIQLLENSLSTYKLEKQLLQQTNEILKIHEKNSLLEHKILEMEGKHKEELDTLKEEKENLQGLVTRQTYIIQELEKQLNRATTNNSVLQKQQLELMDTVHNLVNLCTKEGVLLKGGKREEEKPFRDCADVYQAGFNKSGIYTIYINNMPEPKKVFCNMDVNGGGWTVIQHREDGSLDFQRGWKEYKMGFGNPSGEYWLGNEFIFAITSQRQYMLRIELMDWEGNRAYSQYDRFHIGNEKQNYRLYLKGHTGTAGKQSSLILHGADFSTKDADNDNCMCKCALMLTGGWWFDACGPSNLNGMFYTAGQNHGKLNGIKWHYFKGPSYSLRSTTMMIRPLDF

Compound	ka (huAng2) [M⁻¹ s⁻¹]	kd (huAng2) [s⁻¹]	hAng-1 IC 50 (hAng-1)	also measured
O=c1[nH]cc(F)c(=O)[nH]1 [Peptibody 5-FU, 5-FU, reference compound]	–	–	–	tumor growth vs. vehicle control (Colo-205 tumor; Example 19b, 5-FU 50 mg/kg qdx5 i.p., or both): Significant differences in tumor growth; transient reduction in body weight (Colo-205 tumor; Example 19b, at study day 20, followed by complete recovery): 18%
CC(=O)O[C@@]12CO[C@@H]1C[C@H](O)[C@@]1(C)C(=O)[C@H](O)C3=C(C)[C@@H](OC(=O)[C@H](O)[C@@H](NC(=O)OC(C)(C)C)c4ccccc4)C[C@@](O)([C@@H](OC(=O)c4ccccc4)[C@H]21)C3(C)C [taxotere, reference compound]	–	–	–	tumor growth vs. vehicle control (Colo-205 tumor; Example 19a, taxotere 20 mg/kg qwx3 i.p., or both): Significant differences in tumor growth
M-Fc-GGGGGAQ-PIRQEECDWDPWTCEHMWEV-LE (M[Fc(8)]GGGGGAQPIRQEECDWDPWTCEHMWEVLE; cysteine pairing not given here; also: Fc vehicle fused at position 2) [Con4-44 (C)]	290000	5.9e-05	–	–
MGAQ-FDYCEGVEDPFTFGCDNHLE-GGGGG-Fc (MGAQFDYCEGVEDPFTFGCDNHLEGGGGG[Fc(6)]; cysteine pairing not given here) [12-9 (N)]	–	–	No In-	mAng-2 ka (mAng-2): 720000 M⁻¹ s⁻¹; mAng-2 kd (mAng-2): 0.00023 s⁻¹; hAng-2 ka (hAng-2): 120000 M⁻¹ s⁻¹; hAng-2 kd (hAng-2): 0.001 s⁻¹
MGAQ-HQICKWDPWTCKHWLEGGGGG-Fc (MGAQHQICKWDPWTCKHWLEGGGGG[Fc(5)]; not fully specified (bridges); printed as MGAQ-HQICKWDPWTCKHWLEGGGGG-Fc; cysteine pairing not given here) [8-14 (N)]	–	–	No In-	–
MGAQ-HTFQPLDELEETLYYQWLYDQL LEGGGGG-Fc (MGAQHTFQPLDELEETLYYQWLYDQLLEGGGGG[Fc]; also: Fc vehicle domain fused (peptibody)) [L1-21 (N)]	560000	0.00014	–	–
MGAQ-KRPCEEIFGGCTYQLEGGGGG-Fc (MGAQKRPCEEIFGGCTYQLEGGGGG[Fc(5)]; not fully specified (bridges); printed as MGAQ-KRPCEEIFGGCTYQLEGGGGG-Fc; cysteine pairing not given here) [Con1 (N)]	–	–	No In-	–
MGAQ-KRPCEEMWGGCNYDLEGGGGG-Fc (MGAQKRPCEEMWGGCNYDLEGGGGG[Fc(5)]; not fully specified (bridges); printed as MGAQ-KRPCEEMWGGCNYDLEGGGGG-Fc; cysteine pairing not given here) [8-8 (N)]	–	–	No In-	–
MGAQ-QKFQPLDELEQTLYEQFMLQQA LEGGGGG-Fc (MGAQQKFQPLDELEQTLYEQFMLQQALEGGGGG[Fc]; also: Fc vehicle domain fused (peptibody)) [L1-10 (N)]	150000	0.00011	–	–
MGAQ-QYGCDGFLYGCMINLE-GGGGG-Fc (MGAQQYGCDGFLYGCMINLEGGGGG-{Fc(9)}; not fully specified (bridges); printed as MGAQ-QYGCDGFLYGCMINLE-GGGGG-Fc; cysteine pairing not given here) [C17 (N)]	–	–	No In-	–
MGAQ-TNFMPMDDLEQRLYEQFILQQG-LEGGGGG-Fc (MGAQTNFMPMDDLEQRLYEQFILQQGLEGGGGG-Fc) [L1-7 (N)]	370000	8.7e-05	–	–
MGAQKFNPLDELEETLYEQFTFQQLEGGGGG-Fc [L1 (N)]	–	–	No In-	mAng-2 ka (mAng-2): 560000 M⁻¹ s⁻¹; mAng-2 kd (mAng-2): 0.00023 s⁻¹; hAng-2 ka (hAng-2): 290000 M⁻¹ s⁻¹; hAng-2 kd (hAng-2): 0.00091 s⁻¹
